Laboratory results taken from article PMC5177888, “An Adaptation To Life In Acid Through A Novel Mevalonate Pathway” (Scientific Reports, 2016).

B1: mevalonate 3,5-bisphosphate decarboxylase (Ta0893) from Thermoplasma acidophilum, recombinant, full length, co-expressed with GroEL/GroES (enzyme, UniProt Q9HJS1 1-405, looked up)
chain: MDTAGMEHSVSWISSNSDELILRSWISSRMDIAELHRAGDDIKEMMKSEGYYSEPSKYEAELSDGNITFAYSYPIKAFEKFLGYYDRENRIAFNPSISMRTDFSFCLAACRYRKNGKTDTVVLDGYADNKYYKKAKFALDKFRSEYSINGSFDFYIKRYRRYQKAKGLSESSAVAAAVSRALISNVFGDDAAKDDIFVSRYARLVSGSGTRAAHDGISMWLSYPGMDSRDCVAFKVGKSNENLNYGVFPKYSDVATDNAHSIAVNSVFYGTWVSEKFSNVKRLISDHFDINDLLKIGENDMLRLNSILMSGGLIIQTPDSLRILKEILKFKSKNEGFYFTADTGPSIAIFSFDRSLIDEFRENVNDEYIEGSYDFKGYNNRMRDFIREAQEYFTQTPGEDEEDRL
notes: Ta0893, mevalonate 3,5-bisphosphate decarboxylase, Thermoplasma acidophilum; NCBI WP_010901303.1; full-length protein; predicted monomer 46.3 kDa; gene codon optimized and synthesized, cloned in pET28a(+) between NdeI and XhoI; The Ni-NTA eluate may still hold E. coli proteins such as the co-expressed chaperones; also called MBD; recombinant Ta0893; source: E. coli BL21(DE3) Gold, co-expressed …
B2: mevalonate 3,5-bisphosphate decarboxylase (Ta0893), native, in Thermoplasma acidophilum lysate (enzyme, UniProt Q9HJS1 1-405, looked up)
chain: B1 chain
notes: Ta0893, mevalonate 3,5-bisphosphate decarboxylase, Thermoplasma acidophilum; NCBI WP_010901303.1; predicted monomer 46.3 kDa; followed as MBD activity in the lysate; also called MBD; native MBD; source: endogenous, T. acidophilum cell-free lysate

How the values were obtained:
[1] = target: the molecule itself; assay: SEC; recombinant Ta0893 (co-expressed with GroEL/ES) mixed with Biorad gel filtration standard, Superdex S200 10/300 GL, 50 mM sodium phosphate pH 6.5, 500 mM NaCl; fractions assayed for MBD activity; apparent molecular weight from the activity profile
[2] = target: the molecule itself; assay: SEC; T. acidophilum cell-free lysate mixed with Biorad gel filtration standard, Superdex S200 10/300 GL, 50 mM sodium phosphate pH 6.5, 500 mM NaCl; fractions assayed for MBD activity; apparent molecular weight from the activity profile

Protein | stoichiometry N [1] | stoichiometry N [2]
B1 | 2 | 
B2 |  | 2
